The record followed here is patent US20140141019A1.

Holding throughout (assay): SPOT alanine scanning, spot intensity
Test [1] concerns the target HER3 peptide 342-356 … with Asp352 replaced by alanine (human).
Test [2] concerns the target HER3 peptide 343-357 … with Asp352 replaced by alanine (human).
The target of test [3] is HER3 peptide 344-358 … with Asp352 replaced by alanine (human).
The target in test [4] is alanine analogs at Pro353 and Ile357 of the HER3 pentadecapeptides 342-356, 343-357 and 344-358.

B1: mAb H4B-121 (purified human IgG) (antibody, V domains shown)
VH: EVQLVESGGGLVQPGRSLRLSCAASGFTFDDYAMHWVRQAPGKGLEWVSGISWNSGSIGYADSVKGRFTISRDNAKNSLYLQMNSLRAEDTAVYYCAREGQWPNYGMDVWGQGTTVTVSS
VL: QSVLTQPPSVSAAPGQKVTISCPGSSSNIGNNYVSWYQQLPGTAPKLLIYDNNERPSGIPDRFSGSTSGTSATLDITDLQAEDEATYYCGAWDNTLGVYVLGTGTQLTVL
Regarding B1, the decrease in binding capacity against the unmodified peptide in test [1], in test [2] and in test [3] was 92% each time. In addition, the decrease in antibody reactivity against the unmodified peptide in test [4] is 40 to 60%.
